Tested on: Escherichia coli TOP10
Assay: shrunken log2 fold change of peptide-encoding DNA abundance (4.5 h post-induction vs induction); higher = less antimicrobial activity (less host growth inhibition)
Details: time post-induction: 4.5 h; library: site-saturation at positions 5, 18, 19, 20
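Further: peptides expressed intracellularly from a pBAD plasmid library in pooled LB shake-flask culture, induced with 0.3% L-arabinose, DNA abundance read by NGS, three biological replicates, DESeq2 with apeglm shrinkage.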

Row | Sequence | shrunken log2 fold change
1 | RRIRYRPPRLPRPRPRPYVMPRP | -1.04
2 | RRIRWRPPRLPRPRPRPHNEPRP | -0.476
3 | RRIRTRPPRLPRPRPRPGWKPRP | 0.262
4 | RRIRRRPPRLPRPRPRPIGNPRP | 0.0912
5 | RRIRLRPPRLPRPRPRPKLRPRP | -0.00715
6 | RRIRERPPRLPRPRPRPHGKPRP | -0.0244
7 | RRIRMRPPRLPRPRPRPNMKPRP | 0.0548
8 | RRIRMRPPRLPRPRPRPTHKPRP | 0.275
9 | RRIRTRPPRLPRPRPRPHQSPRP | -0.179
10 | RRIRCRPPRLPRPRPRPDDDPRP | 0.0464
11 | RRIRQRPPRLPRPRPRPGKSPRP | -0.103
12 | RRIRYRPPRLPRPRPRPPWWPRP | 0.605
13 | RRIRQRPPRLPRPRPRPEDPPRP | -0.00697
14 | RRIRGRPPRLPRPRPRPENYPRP | -0.144
15 | RRIRIRPPRLPRPRPRPINVPRP | -0.619
16 | RRIRARPPRLPRPRPRPNRHPRP | 0.0991
17 | RRIRGRPPRLPRPRPRPKKIPRP | 0.494
18 | RRIRCRPPRLPRPRPRPFYFPRP | -0.593
19 | RRIRGRPPRLPRPRPRPAGYPRP | 0.164
20 | RRIRTRPPRLPRPRPRPAQNPRP | 0.323
21 | RRIRSRPPRLPRPRPRPMQYPRP | -0.289
22 | RRIRFRPPRLPRPRPRPTFQPRP | -0.156
23 | RRIRGRPPRLPRPRPRPFYAPRP | 0.0161
24 | RRIRVRPPRLPRPRPRPTVPPRP | -0.138
25 | RRIRFRPPRLPRPRPRPCTKPRP | -0.229

Row | Sequence | shrunken log2 fold change
26 | RRIRARPPRLPRPRPRPQWCPRP | -0.0868
27 | RRIRCRPPRLPRPRPRPVLMPRP | -0.00563
28 | RRIRKRPPRLPRPRPRPQYLPRP | -0.0967
29 | RRIRIRPPRLPRPRPRPHCVPRP | -0.533
30 | RRIRDRPPRLPRPRPRPTRIPRP | 0.0348
31 | RRIRLRPPRLPRPRPRPHEHPRP | -0.109
32 | RRIRERPPRLPRPRPRPMRKPRP | -0.0645
33 | RRIRHRPPRLPRPRPRPYNFPRP | -0.078
34 | RRIRPRPPRLPRPRPRPKEAPRP | -0.0122
35 | RRIRVRPPRLPRPRPRPFQPPRP | -0.152
36 | RRIRGRPPRLPRPRPRPLYIPRP | -0.321
37 | RRIRYRPPRLPRPRPRPFYEPRP | -1.2
38 | RRIRVRPPRLPRPRPRPAHKPRP | -0.0968
39 | RRIRIRPPRLPRPRPRPKIEPRP | -0.0307
40 | RRIRIRPPRLPRPRPRPAHKPRP | 0.0491
41 | RRIRKRPPRLPRPRPRPIGCPRP | -0.000243
42 | RRIRARPPRLPRPRPRPDDRPRP | -0.149
43 | RRIRNRPPRLPRPRPRPMFLPRP | -0.241
44 | RRIRSRPPRLPRPRPRPIYYPRP | -0.641
45 | RRIRIRPPRLPRPRPRPLPWPRP | -0.019
46 | RRIRSRPPRLPRPRPRPIREPRP | -0.0902
47 | RRIRCRPPRLPRPRPRPSIPPRP | -0.969
48 | RRIRWRPPRLPRPRPRPLVIPRP | -0.0698
49 | RRIRNRPPRLPRPRPRPCIVPRP | 0.045
50 | RRIRCRPPRLPRPRPRPPPEPRP | 1.32

Row | Sequence | shrunken log2 fold change
51 | RRIRYRPPRLPRPRPRPMVIPRP | -0.0231
52 | RRIRCRPPRLPRPRPRPCWCPRP | -0.203
53 | RRIRHRPPRLPRPRPRPLSEPRP | 0.203
54 | RRIRDRPPRLPRPRPRPEKLPRP | 0.19
55 | RRIRHRPPRLPRPRPRPLTSPRP | -0.246
56 | RRIRTRPPRLPRPRPRPYALPRP | -0.686
57 | RRIRKRPPRLPRPRPRPSRIPRP | 0.156
58 | RRIRGRPPRLPRPRPRPMDTPRP | 1.12
59 | RRIRMRPPRLPRPRPRPPFIPRP | 0.082
60 | RRIRVRPPRLPRPRPRPFGFPRP | -0.294
61 | RRIRTRPPRLPRPRPRPICIPRP | -0.196
62 | RRIRCRPPRLPRPRPRPIMEPRP | -0.231
63 | RRIRYRPPRLPRPRPRPGPSPRP | -0.125
64 | RRIRHRPPRLPRPRPRPWVEPRP | -0.0959
65 | RRIRMRPPRLPRPRPRPYAPPRP | -0.24
66 | RRIRLRPPRLPRPRPRPWMQPRP | 0.0547
67 | RRIRYRPPRLPRPRPRPCLYPRP | -0.783
68 | RRIRIRPPRLPRPRPRPNAQPRP | -0.0106
69 | RRIRPRPPRLPRPRPRPMLMPRP | 0.459
70 | RRIRIRPPRLPRPRPRPCLRPRP | -1.04
71 | RRIRVRPPRLPRPRPRPEGSPRP | 0.464
72 | RRIRVRPPRLPRPRPRPQALPRP | -0.000718
73 | RRIRPRPPRLPRPRPRPWVDPRP | 0.064
74 | RRIRTRPPRLPRPRPRPQREPRP | -0.0725
75 | RRIRQRPPRLPRPRPRPHALPRP | -0.6

Row | Sequence | shrunken log2 fold change
76 | RRIRNRPPRLPRPRPRPKREPRP | 0.0191
77 | RRIRFRPPRLPRPRPRPKEYPRP | -0.468
78 | RRIRYRPPRLPRPRPRPKWMPRP | -0.27
79 | RRIRMRPPRLPRPRPRPWMDPRP | -0.0276
80 | RRIRCRPPRLPRPRPRPTDYPRP | 1.93
81 | RRIRIRPPRLPRPRPRPWKHPRP | -0.0111
82 | RRIRCRPPRLPRPRPRPYQRPRP | 0.055
83 | RRIRIRPPRLPRPRPRPNMDPRP | -0.874
84 | RRIRYRPPRLPRPRPRPYCEPRP | -0.0996
85 | RRIRHRPPRLPRPRPRPSCMPRP | -0.224
86 | RRIRPRPPRLPRPRPRPTWLPRP | 0.522
87 | RRIRCRPPRLPRPRPRPISWPRP | -0.105
88 | RRIRGRPPRLPRPRPRPCQTPRP | 0.0774
89 | RRIRGRPPRLPRPRPRPACRPRP | 0.549
90 | RRIRMRPPRLPRPRPRPKRFPRP | 0.483
91 | RRIRARPPRLPRPRPRPTKGPRP | 0.308
92 | RRIRMRPPRLPRPRPRPGMMPRP | 0.185
93 | RRIRTRPPRLPRPRPRPYNQPRP | -0.33
94 | RRIRTRPPRLPRPRPRPRKVPRP | -0.295
95 | RRIRMRPPRLPRPRPRPHSRPRP | 0.211
96 | RRIRMRPPRLPRPRPRPIFHPRP | -0.00123
97 | RRIRMRPPRLPRPRPRPRRMPRP | 0.73
98 | RRIRQRPPRLPRPRPRPNKVPRP | -0.468
99 | RRIRGRPPRLPRPRPRPNKWPRP | 0.0346
100 | RRIRVRPPRLPRPRPRPRRRPRP | 0.271

Row | Sequence | shrunken log2 fold change
101 | RRIRVRPPRLPRPRPRPNFQPRP | -0.175
102 | RRIRIRPPRLPRPRPRPAVKPRP | -0.0893
103 | RRIRFRPPRLPRPRPRPCVWPRP | 0.0426
104 | RRIRDRPPRLPRPRPRPKENPRP | 0.0579
105 | RRIRERPPRLPRPRPRPQPFPRP | 0.217
106 | RRIRWRPPRLPRPRPRPKYAPRP | -0.0417
107 | RRIRDRPPRLPRPRPRPMCPPRP | 0.00942
108 | RRIRDRPPRLPRPRPRPMCVPRP | 0.101
109 | RRIRCRPPRLPRPRPRPLTNPRP | -0.454
110 | RRIRKRPPRLPRPRPRPTGKPRP | 0.905
111 | RRIRIRPPRLPRPRPRPIMLPRP | 0.112
112 | RRIRVRPPRLPRPRPRPSENPRP | 0.0175
113 | RRIRMRPPRLPRPRPRPKHRPRP | 0.229
114 | RRIRKRPPRLPRPRPRPQCRPRP | 0.162
115 | RRIRKRPPRLPRPRPRPIVYPRP | -0.0564
116 | RRIRIRPPRLPRPRPRPQLRPRP | -0.203
117 | RRIRQRPPRLPRPRPRPHASPRP | -0.00783
118 | RRIRNRPPRLPRPRPRPLIQPRP | -0.327
119 | RRIRNRPPRLPRPRPRPHRPPRP | 0.128
120 | RRIRRRPPRLPRPRPRPHIRPRP | 0.00753
121 | RRIRIRPPRLPRPRPRPQCWPRP | 0.203
122 | RRIRYRPPRLPRPRPRPYHCPRP | -0.00776
123 | RRIRWRPPRLPRPRPRPIIRPRP | -0.00231
124 | RRIRTRPPRLPRPRPRPIRNPRP | -0.324
125 | RRIRCRPPRLPRPRPRPYHWPRP | -1.09

Row | Sequence | shrunken log2 fold change
126 | RRIRCRPPRLPRPRPRPICEPRP | -0.178
127 | RRIRARPPRLPRPRPRPQYWPRP | -0.167
128 | RRIRKRPPRLPRPRPRPMFVPRP | 0.426
129 | RRIRTRPPRLPRPRPRPDIVPRP | -0.0539
130 | RRIRKRPPRLPRPRPRPTLRPRP | 1.01
131 | RRIRQRPPRLPRPRPRPLLWPRP | 0.091
132 | RRIRRRPPRLPRPRPRPCQGPRP | -0.129
133 | RRIRMRPPRLPRPRPRPTGAPRP | 1.25
134 | RRIRLRPPRLPRPRPRPHAPPRP | 0.304
135 | RRIRHRPPRLPRPRPRPWGLPRP | -0.00494
136 | RRIRHRPPRLPRPRPRPGMVPRP | 0.12
137 | RRIRWRPPRLPRPRPRPERHPRP | 0.277
138 | RRIRARPPRLPRPRPRPKHFPRP | 4.03
139 | RRIRKRPPRLPRPRPRPYDSPRP | 0.0392
140 | RRIRFRPPRLPRPRPRPQFAPRP | 0.0456
141 | RRIRIRPPRLPRPRPRPPCPPRP | -0.141
142 | RRIRGRPPRLPRPRPRPPPRPRP | 1.69
143 | RRIRDRPPRLPRPRPRPAAEPRP | 1.25
144 | RRIRERPPRLPRPRPRPHNEPRP | -0.438
145 | RRIRIRPPRLPRPRPRPTAFPRP | -0.532
146 | RRIRPRPPRLPRPRPRPTNGPRP | 0.191
147 | RRIRTRPPRLPRPRPRPKNVPRP | 0.0149
148 | RRIRTRPPRLPRPRPRPYQCPRP | -0.0724
149 | RRIRSRPPRLPRPRPRPRMIPRP | -0.086
150 | RRIRERPPRLPRPRPRPRQHPRP | -0.0319

Reference: the supplement of paper PMC9112550, “Optimization of the antimicrobial peptide Bac7 by deep mutational scanning” (BMC Biology, 2022)
